Test results taken from article PMC5779224 (2017).
Like-named read-outs stand apart in the source and are kept apart here. Values belong to the binder of their own block, whether it stands above or below them.

Legend:
[1] = target: T1, AnkB_MBD (AnkB ANK repeats only, aa 28–827) (human, UniProt Q01484-2 28-827); experiment: ITC
T1 chain: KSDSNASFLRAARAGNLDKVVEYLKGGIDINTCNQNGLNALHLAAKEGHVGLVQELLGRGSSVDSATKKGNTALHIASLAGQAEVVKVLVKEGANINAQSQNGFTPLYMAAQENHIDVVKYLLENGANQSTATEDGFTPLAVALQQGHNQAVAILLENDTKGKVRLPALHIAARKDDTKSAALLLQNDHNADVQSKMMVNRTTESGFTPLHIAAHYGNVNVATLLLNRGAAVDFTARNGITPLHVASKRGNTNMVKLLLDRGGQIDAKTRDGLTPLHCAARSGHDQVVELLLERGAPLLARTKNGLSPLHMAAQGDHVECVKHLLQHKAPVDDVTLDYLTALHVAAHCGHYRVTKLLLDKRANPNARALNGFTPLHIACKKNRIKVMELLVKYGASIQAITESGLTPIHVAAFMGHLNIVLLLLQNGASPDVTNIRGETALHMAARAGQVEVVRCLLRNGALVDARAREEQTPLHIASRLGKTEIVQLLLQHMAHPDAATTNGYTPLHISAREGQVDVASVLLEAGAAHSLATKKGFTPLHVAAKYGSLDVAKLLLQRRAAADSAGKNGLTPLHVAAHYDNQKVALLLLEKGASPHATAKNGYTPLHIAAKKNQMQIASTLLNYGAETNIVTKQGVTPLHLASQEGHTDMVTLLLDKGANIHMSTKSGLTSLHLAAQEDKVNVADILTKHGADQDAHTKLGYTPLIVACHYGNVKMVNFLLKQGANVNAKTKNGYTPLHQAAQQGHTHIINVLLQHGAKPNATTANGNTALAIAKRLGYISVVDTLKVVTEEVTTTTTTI

AnkB_MBD Asn595Ala = target: T2, AnkB_MBD Asn595Ala (human, UniProt Q01484-2 28-827, Asn595Ala); experiment: ITC
T2 sequence: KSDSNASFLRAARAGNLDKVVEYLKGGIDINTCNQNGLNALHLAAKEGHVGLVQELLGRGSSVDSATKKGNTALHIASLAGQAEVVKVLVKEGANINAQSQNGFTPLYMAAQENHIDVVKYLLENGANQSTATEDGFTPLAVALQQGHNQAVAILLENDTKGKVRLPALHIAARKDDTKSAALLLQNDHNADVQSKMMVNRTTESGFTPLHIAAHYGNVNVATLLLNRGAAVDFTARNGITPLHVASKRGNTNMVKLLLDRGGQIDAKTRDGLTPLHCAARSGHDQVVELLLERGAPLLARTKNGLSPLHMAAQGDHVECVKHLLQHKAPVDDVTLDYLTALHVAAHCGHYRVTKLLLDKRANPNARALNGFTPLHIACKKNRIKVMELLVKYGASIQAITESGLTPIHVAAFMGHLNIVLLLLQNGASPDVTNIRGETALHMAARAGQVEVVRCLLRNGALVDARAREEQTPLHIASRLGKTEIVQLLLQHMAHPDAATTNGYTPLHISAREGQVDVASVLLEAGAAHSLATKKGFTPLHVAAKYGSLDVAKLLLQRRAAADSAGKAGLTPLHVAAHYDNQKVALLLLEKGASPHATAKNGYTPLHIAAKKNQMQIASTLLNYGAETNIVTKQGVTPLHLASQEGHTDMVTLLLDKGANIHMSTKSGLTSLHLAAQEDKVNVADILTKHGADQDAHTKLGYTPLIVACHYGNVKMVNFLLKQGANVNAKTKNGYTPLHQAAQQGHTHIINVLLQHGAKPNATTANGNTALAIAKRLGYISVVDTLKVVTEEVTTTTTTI

[2] = target: T3, AnkB_MBD R1 charge reversal mutant ('EAAE') (human, UniProt Q01484-2 28-827, 37RAAR40 to 37EAAE40); experiment: FP
T3 sequence: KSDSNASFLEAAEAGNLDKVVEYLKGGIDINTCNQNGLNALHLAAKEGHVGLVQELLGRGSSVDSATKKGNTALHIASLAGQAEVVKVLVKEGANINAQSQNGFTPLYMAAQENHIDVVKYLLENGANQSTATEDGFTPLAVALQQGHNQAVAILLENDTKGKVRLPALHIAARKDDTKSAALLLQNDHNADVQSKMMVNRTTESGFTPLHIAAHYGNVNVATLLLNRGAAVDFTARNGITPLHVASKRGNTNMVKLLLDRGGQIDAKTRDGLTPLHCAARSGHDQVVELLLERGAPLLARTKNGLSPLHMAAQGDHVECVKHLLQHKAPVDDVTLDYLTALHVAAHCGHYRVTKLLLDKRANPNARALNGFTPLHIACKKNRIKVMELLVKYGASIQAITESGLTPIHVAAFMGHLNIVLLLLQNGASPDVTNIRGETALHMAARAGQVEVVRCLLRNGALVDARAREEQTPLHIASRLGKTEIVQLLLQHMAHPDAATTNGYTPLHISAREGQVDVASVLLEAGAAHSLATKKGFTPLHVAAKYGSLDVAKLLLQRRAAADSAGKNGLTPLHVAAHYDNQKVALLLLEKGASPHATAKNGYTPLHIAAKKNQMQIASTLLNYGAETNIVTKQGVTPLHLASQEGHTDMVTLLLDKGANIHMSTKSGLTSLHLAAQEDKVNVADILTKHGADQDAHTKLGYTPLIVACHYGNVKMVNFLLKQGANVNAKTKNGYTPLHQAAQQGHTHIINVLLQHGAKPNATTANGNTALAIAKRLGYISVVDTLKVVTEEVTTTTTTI

[3] = target: T1, AnkB_MBD (AnkB ANK repeats only, aa …); experiment: ITC
[4] = target: T4, AnkB 28–847 (MBD + partial AI-c) (human, UniProt Q01484-2 28-847); experiment: ITC
T4 chain: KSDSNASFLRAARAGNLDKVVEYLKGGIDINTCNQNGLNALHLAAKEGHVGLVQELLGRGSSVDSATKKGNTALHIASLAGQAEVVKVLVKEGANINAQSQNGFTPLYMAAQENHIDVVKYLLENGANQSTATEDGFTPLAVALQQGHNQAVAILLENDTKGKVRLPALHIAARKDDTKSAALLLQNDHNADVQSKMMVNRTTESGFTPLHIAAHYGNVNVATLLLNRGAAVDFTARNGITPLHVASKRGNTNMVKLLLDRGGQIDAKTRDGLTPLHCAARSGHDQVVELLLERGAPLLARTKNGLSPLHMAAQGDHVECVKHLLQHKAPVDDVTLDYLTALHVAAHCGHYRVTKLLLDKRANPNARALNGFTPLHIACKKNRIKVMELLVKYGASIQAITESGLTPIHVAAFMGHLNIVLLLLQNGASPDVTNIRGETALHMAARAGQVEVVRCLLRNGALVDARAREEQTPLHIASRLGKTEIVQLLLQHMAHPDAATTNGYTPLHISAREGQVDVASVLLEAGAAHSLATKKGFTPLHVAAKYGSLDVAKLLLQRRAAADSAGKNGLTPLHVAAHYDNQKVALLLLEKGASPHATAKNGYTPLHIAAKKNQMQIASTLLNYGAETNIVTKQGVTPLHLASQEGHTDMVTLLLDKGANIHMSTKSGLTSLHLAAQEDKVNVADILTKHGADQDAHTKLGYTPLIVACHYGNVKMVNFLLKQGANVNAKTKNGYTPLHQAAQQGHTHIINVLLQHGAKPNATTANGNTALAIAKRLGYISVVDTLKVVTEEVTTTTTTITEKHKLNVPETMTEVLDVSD

[5] = target: T5, AnkG 38–855 (AnkG MBD-AI-c protein; MBD + partial AI-c) (rat, UniProt O70511-1 38-855); experiment: ITC
T5 chain: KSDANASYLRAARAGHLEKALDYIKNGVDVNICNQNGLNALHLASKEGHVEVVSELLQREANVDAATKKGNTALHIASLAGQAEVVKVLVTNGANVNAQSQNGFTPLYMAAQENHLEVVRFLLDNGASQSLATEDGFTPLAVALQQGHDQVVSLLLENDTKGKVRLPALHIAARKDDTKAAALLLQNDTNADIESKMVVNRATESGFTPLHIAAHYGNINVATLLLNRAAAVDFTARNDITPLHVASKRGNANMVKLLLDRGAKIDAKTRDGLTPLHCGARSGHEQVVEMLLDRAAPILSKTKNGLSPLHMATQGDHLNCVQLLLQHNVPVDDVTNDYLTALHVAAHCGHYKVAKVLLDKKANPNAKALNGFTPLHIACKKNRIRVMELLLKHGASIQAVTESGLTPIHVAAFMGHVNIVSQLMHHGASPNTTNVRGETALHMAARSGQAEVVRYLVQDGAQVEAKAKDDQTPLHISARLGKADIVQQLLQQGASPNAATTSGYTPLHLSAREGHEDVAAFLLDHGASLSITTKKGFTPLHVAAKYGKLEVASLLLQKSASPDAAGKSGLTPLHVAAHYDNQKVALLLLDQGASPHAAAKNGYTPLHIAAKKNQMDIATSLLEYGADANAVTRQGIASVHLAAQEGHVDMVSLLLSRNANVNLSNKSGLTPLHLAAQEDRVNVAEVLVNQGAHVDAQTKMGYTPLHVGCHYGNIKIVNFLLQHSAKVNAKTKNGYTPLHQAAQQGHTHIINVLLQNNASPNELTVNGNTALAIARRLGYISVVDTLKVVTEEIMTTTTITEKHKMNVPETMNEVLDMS

[6] = target: T6, AnkG 38–903 (MBD + AI-c + AI-b) (rat, UniProt O70511-1 38-903); experiment: ITC; too weak to be reliably fit
T6 chain: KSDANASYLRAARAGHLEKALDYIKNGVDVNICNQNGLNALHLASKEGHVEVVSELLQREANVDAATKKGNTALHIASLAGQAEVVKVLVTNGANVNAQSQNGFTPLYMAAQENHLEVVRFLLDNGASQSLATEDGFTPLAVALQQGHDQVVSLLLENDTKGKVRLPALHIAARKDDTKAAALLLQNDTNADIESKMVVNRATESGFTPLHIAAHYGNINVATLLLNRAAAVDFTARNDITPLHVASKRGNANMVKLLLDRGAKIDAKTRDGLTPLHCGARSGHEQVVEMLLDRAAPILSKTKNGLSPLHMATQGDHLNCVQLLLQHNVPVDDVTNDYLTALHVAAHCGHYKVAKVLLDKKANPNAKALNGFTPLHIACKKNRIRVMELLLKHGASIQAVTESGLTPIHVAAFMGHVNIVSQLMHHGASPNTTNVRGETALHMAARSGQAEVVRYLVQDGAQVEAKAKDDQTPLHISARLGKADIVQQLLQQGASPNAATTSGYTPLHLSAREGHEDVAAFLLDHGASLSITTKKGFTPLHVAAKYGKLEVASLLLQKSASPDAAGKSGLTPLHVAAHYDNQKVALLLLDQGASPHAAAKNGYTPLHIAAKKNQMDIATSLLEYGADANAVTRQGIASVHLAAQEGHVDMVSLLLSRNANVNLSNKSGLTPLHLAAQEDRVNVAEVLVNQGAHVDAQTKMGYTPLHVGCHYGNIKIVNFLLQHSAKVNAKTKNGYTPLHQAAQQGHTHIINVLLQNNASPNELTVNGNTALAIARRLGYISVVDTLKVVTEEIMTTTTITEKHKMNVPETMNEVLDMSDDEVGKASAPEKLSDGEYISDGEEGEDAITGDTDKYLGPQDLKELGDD

- Kd [1]: 360 nM
- Kd (AnkB_MBD Asn595Ala): 2400 nM
Binder: TEKHKLNVPETMTEVLDVSDEEGDD (domain or fragment) [AnkB_AI-c (aa 828–852)]

- Kd [2]: 43.8 µM
Binder: HPPIVSEEDISVG [AnkB_AI-a peptide (aa 1623–1635)]

- Kd [3]: 470 nM
Binder: CADQYWNEVAVIDAIPLAATEHDTMLEMSDMQVWSAGDHPPIVSEEDIS [AnkR/B_CT Chimera]

- Kd [4]: 780 nM
- Kd [5]: 610 nM
- Kd [6]: ~45 µM
B1: E-cadherin (aa 734–884) (domain or fragment)
chain: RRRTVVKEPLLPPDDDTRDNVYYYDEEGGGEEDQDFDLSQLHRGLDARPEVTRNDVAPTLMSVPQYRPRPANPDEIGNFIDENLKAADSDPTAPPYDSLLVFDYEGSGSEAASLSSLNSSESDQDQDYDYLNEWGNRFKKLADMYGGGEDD
